The values below come from US20240228562A1 (Pieris, published 2024).

Positions count from the first letter of the chain named.

In general, Kd refers to the concentration at which binding is half-saturated. One may read the koff as a measure of how fast the partners let go of each other. Usually kon stands for the rate constant with which the complex forms. The term EC50 denotes the midpoint of the concentration-response curve.

The target in assay [1] is T1, recombinant human CTGF-Fc protein (Creative Biomart) (human).
T1 construct: Bought; also called human CTGF with a human IgG1 Fc Tag
T1 sequence (chain, as listed by the source limits assumed): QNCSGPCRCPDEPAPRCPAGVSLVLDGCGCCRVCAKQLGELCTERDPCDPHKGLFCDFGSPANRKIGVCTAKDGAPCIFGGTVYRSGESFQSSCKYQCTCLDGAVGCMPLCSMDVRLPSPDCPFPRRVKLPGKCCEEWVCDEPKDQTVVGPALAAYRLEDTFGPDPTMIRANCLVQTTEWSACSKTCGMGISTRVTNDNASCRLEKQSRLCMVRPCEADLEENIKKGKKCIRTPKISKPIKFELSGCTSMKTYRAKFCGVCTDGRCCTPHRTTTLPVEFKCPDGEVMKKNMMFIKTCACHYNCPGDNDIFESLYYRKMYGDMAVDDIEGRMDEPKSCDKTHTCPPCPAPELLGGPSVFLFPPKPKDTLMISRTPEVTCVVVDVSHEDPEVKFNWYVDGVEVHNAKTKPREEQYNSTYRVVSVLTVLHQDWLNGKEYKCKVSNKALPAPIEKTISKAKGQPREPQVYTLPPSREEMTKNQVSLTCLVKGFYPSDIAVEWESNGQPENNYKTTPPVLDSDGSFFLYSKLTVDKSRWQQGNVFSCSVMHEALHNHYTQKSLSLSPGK
Briefly: SPR (Biacore). The essentials: (§1)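 Lipocalin muteins injected at 25 °C over CTGF either Fc-tagged and captured by anti-human IgG-Fc (0.25-2.5 μg/mL in HBS-EP+, 180 s) or amine-coupled directly to a CM5 chip. Association 180 s, dissociation 900-3600 s, flow 30 μL/min.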

Another assay deals with T2, cynomolgus CTGF (cynomolgus, UniProt I7G525 27-349).
T2 construct: also called cyCTGF
T2 sequence: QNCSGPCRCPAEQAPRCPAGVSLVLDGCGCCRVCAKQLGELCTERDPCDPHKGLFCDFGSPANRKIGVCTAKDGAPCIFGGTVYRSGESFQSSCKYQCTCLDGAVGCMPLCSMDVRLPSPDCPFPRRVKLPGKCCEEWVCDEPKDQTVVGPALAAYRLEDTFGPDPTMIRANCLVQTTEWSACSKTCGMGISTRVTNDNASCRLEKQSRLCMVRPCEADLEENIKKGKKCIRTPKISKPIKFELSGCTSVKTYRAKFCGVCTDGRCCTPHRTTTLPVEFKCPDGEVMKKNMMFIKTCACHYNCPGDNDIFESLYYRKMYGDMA
Description: SPR (Biacore). The essentials: as §1
Background: SPR reads the build-up and loss of mass on a sensor chip optically.

In another assay the target is T3, mouse CTGF (Abbexa) (mouse, UniProt P29268 26-348, limits assumed).
T3 construct: also called Murine CTGF; mCTGF
T3 sequence (looked up): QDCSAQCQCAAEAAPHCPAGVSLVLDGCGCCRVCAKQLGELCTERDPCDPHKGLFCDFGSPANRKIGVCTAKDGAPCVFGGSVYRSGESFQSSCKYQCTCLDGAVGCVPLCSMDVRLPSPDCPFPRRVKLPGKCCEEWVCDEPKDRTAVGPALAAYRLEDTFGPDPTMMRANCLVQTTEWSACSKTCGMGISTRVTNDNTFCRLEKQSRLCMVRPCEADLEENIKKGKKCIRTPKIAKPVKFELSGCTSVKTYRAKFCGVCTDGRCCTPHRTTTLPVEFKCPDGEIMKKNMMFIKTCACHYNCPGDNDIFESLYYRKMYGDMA
Briefly: SPR (Biacore). The gist of the method:
as §1

For assay [2], the target named is T4, recombinant rat CTGF protein (R&D Systems) (rat, UniProt Q9R1E9 25-347).
T4 construct: Bought; also called rCTGF
T4 sequence: T3 sequence (looked up) with H16R, A148V
Briefly: SPR (Biacore). The essentials:
as §1

In assay [3] the target is T4, recombinant rat CTGF protein (R&D …). Description: ELISA, coated target. For orientation: In an ELISA, binding on a coated surface is turned into a signal by an enzyme label.
Assay [4] has as its target T5, recombinant human CTGF protein (R&D Systems, SEQ ID NO: 79) (human, UniProt P29279 27-349).
T5 construct: Bought; also called human CTGF/CNN2; huCTGF
T5 sequence: T2 sequence with A11D, Q13P, V250M
Description: ELISA, coated target.

In assay [5] the target is T6, murine CTGF (Biozol, SEQ ID NO: 80) (murine).
T6 construct: Bought; also called muCTGF
Description: ELISA, coated target.

Assay [6] has as its target T7, huCTGF domains 1 and 2 with human Fc tag (human).
T7 construct: Made by Evitria; also called Human CTGF1-2-huFc
Briefly: ELISA, coated target.

Assay [7] deals with T8, muCTGF domains 1 and 2 with human Fc tag (murine).
T8 construct: Made by Evitria; also called Murine CTGF1-2-huFc
T8 sequence (chain, as listed by the source limits assumed): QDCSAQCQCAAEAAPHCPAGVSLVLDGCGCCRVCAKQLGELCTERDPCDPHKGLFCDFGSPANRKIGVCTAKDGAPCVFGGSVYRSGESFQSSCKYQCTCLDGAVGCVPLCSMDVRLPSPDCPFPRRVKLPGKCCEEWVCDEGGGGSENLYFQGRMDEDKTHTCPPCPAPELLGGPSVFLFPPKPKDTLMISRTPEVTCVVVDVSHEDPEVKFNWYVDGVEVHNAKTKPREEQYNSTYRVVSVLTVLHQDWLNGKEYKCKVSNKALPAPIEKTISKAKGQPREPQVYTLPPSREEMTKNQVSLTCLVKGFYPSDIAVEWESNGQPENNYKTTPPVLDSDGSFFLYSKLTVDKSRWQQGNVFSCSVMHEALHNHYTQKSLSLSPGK
Briefly: ELISA, coated target.

B1: lipocalin mutein of SEQ ID NO: 15 (designed binder)
chain: QDSTSDLIPAPPLSKVPLQQNFQDNQFQGKWYVVGLAGNAILREDKQPAKMFATIYELKEDKSYDVTSVRFEAKSCKYTIKTFVPGSQPGEFTAGYIKSAPGQTSTLVRVVSTNYNQHAMVFFKHVTQNREIFVITLYGRTKELTSELKENFIRFSKSLGLPENHIVFPVPIDQCIDG
notes: also called hNGAL mutein; not shown: C-terminal His-tag
B1: the Kd in assay [1] was 0.000547 µM; in the assay with cynomolgus CTGF, 0.000707 µM; with mouse CTGF (Abbexa), 0.000349 µM; in assay [2], 0.00095 µM. Besides, the koff in [1] was determined as 4.47e-05 s⁻¹; with cynomolgus CTGF, 7.57e-05 s⁻¹; with mouse CTGF (Abbexa), 4.51e-05 s⁻¹; in [2], 0.000114 s⁻¹. Moreover, the kon in assay [1] amounted to 81700 M⁻¹ s⁻¹; in the assay with cynomolgus CTGF, 107000 M⁻¹ s⁻¹; with mouse CTGF (Abbexa), 129000 M⁻¹ s⁻¹; in [2], 120000 M⁻¹ s⁻¹.

B2: lipocalin mutein of SEQ ID NO: 25 (designed binder)
chain: QDSTSDLIPAPPLSKVPLQQNFQDNQFHGKWYVVGMAGNFRLREDKDPSKMGATIYELKEDKSYNVTQVQFDDKKCLYVIETFVPGSQPGEFTLGAIKSFPGFTSQLVRVVSTNYNQHAMVFFKKVYQNREVFWITLYGRTKELTSELKENFIRFSKSLGLPENHIVFPVPIDQCIDGSAWSHPQFEK
notes: Parent hNGAL mutein; also called hNGAL mutein
Regarding B2, the Kd in assay [1] was 0.00927 µM; in [2] it was 0.0277 µM. For the same molecule, the koff in assay [1] was 0.000248 s⁻¹; in assay [2], 0.00129 s⁻¹. In addition, the association rate constant (kon) in [1] is 26800 M⁻¹ s⁻¹; in assay [2], 46500 M⁻¹ s⁻¹. Also, the figures for the binding result (in the assay with mouse CTGF (Abbexa); in assay [5]) were “no binding (tested: typically 0.43-2000 nM)” and “no binding (tested: dilutions starting at 1000 nM)”, respectively. For the same molecule, the EC50 in assay [3] worked out at 0.023 µM; in assay [4], 0.011 µM; in [6], 0.0088 µM; in assay [7], 0.014 µM.

B3: lipocalin mutein of SEQ ID NO: 7 (designed binder)
chain: QDSTSDLIPAPPLSKVPLQQNFQDNQFHGKWYVVGLAGNYGLRTDKRPSKMFATIYELKEDKSYDVTSVRFEQERCHYTIRTFVPGSQPGEFTTGSIKSRPGQTSSLVRVVSTNYNQHAMVFFKSVIQNREYFAITLYGRTKELTSELKENFIRFSKSLGLPENHIVFPVPIDQCIDGSAWSHPQFEK
notes: as for B2
Regarding B3, the figures for the Kd in [1] and in assay [2] were 0.0602 µM and 0.0628 µM, respectively. Besides, the dissociation rate constant (koff) in [1] was determined as 0.00587 s⁻¹; in [2] it was 0.00754 s⁻¹. Further, the kon in [1] was found to be 97600 M⁻¹ s⁻¹; in [2], 120000 M⁻¹ s⁻¹. Besides, the EC50 in assay [3] stood at 0.041 µM; in assay [4] it was 0.034 µM; in assay [5] it was 0.029 µM; in [6], 0.017 µM; in assay [7], 0.014 µM.

B4: lipocalin mutein of SEQ ID NO: 9 (designed binder)
chain: QDSTSDLIPAPPLSKVPLQQNFQDNQFHGKWYVVGLAGNKILRIDKQPAKMFATIYELKEDKSYDVTSVRFEARSCSYTIKTFVPGSQPGEFTAGNIKSAPGQTSTLVRVVSTNYNQHAMVFFKHVSQNRETFVITLYGRTKELTSELKENFIRFSKSLGLPENHIVFPVPIDQCIDGSAWSHPQFEK
notes: as for B2
As to B4, the Kd is 0.0128 µM in assay [1], 0.00626 µM with mouse CTGF (Abbexa) and 0.016 µM in [2]. Besides, the koff was found to be 0.00102 s⁻¹ in assay [1], 0.000832 s⁻¹ with mouse CTGF (Abbexa) and 0.00169 s⁻¹ in assay [2]. For the same molecule, the kon in assay [1] was determined as 79800 M⁻¹ s⁻¹; with mouse CTGF (Abbexa), 133000 M⁻¹ s⁻¹; in assay [2] it was 105000 M⁻¹ s⁻¹. The EC50 stood at 0.03 µM in [3]; 0.014 µM in assay [4]; 0.011 µM in assay [5]; 0.008 µM in [6]; 0.0058 µM in [7].

B5: lipocalin mutein of SEQ ID NO: 29 (designed binder)
chain: QDSTSDLIPAPPLSKVPLQQNFQDNQFHGKWYVVGWAGNIKLREDKDPFKMSATIYELKEDKSYNVTEVVFEQKKCHYIIKTFVPGSQPGEFTLGDIKSPPGETSSLVRVVSTNYNQHAMVFFKKVFQNREFFWITLYGRTKELTSELKENFIRFSKSLGLPENHIVFPVPIDQCIDGSAWSHPQFEK
notes: as for B2
As to B5, the dissociation constant (Kd) in assay [1] is 0.0112 µM; in assay [2], 0.018 µM. Also, the figures for the koff in assay [1] and in [2] were 0.00112 s⁻¹ and 0.00317 s⁻¹, respectively. Moreover, the on-rate (kon) in assay [1] was 100000 M⁻¹ s⁻¹; in assay [2], 176000 M⁻¹ s⁻¹. The binding result in the assay with mouse CTGF (Abbexa) is “no binding (tested: typically 0.43-2000 nM)”; in assay [5], “no binding (tested: dilutions starting at 1000 nM)”. In addition, the EC50 was determined as 0.02 µM in assay [3], 0.011 µM in assay [4], 0.0084 µM in [6] and 0.017 µM in assay [7].

B6: lipocalin mutein of SEQ ID NO: 3 (designed binder)
chain: QDSTSDLIPAPPLSKVPLQQNFQDNQFHGKWYVVGRAGNNRLREDKDPPKMWATIYELKEDKSYNVTHVHFMTKKCRYIIDTFVPGSQPGEFTLGAIKSGPGMTSPLVRIVSTNYNQHAMVFFKWVNQNREWFTITLYGRTKELTSELKENFIRFSKSLGLPENHIVFPVPIDQCIDGSAWSHPQFEK
notes: as for B2
In the case of B6, in assay [1], the Kd was determined as 0.0375 µM, the koff stood at 0.00749 s⁻¹ and the kon was found to be 200000 M⁻¹ s⁻¹. In addition, in assay [2], the Kd turned out to be 0.0393 µM, the koff came out at 0.0117 s⁻¹ and the kon was found to be 297000 M⁻¹ s⁻¹. For the same molecule, the EC50 in assay [4] is 0.0069 µM. Moreover, the binding result in assay [6] is listed as “no binding (tested: dilutions starting at 1000 nM)”. The binding result in [7] was “no binding (tested: dilutions starting at 1000 nM)”.
